# Assay results reported in paper PMC4370744, “Expression and purification of functional human glycogen synthase-1:glycogenin-1 complex in insect cells” (Protein Expression and Purification, 2015).
# T1: human glycogenin-1 (GN1), GST removed by PreScission protease (human, UniProt P46976 1-350, glycosylated (degree of glycosylation modest))
# T1 construct: human glycogenin-1 (GN1), NM 004130; released from GST at the PreScission site; the introduction speaks of a complete full-length complex; Same construct as m2 after cleavage; source: Sf9, co-expressed with GYS1; purified with GYS1 (glutathione Sepharose, eluted by GST-tagged PreScission protease, Superdex 200)
# T1 sequence (looked up): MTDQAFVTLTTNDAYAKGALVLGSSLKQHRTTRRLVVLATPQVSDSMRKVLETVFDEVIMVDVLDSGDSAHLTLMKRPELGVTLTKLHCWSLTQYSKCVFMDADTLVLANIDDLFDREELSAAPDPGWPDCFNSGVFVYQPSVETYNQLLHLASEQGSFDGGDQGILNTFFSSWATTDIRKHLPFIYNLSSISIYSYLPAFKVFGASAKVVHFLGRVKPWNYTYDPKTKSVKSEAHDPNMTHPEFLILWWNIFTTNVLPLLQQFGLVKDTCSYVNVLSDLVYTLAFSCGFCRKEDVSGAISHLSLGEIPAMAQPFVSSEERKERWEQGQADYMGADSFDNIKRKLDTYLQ
# B1: human muscle glycogen synthase (GYS1) (enzyme, UniProt P13807 1-737, looked up)
# chain: MPLNRTLSMSSLPGLEDWEDEFDLENAVLFEVAWEVANKVGGIYTVLQTKAKVTGDEWGDNYFLVGPYTEQGVRTQVELLEAPTPALKRTLDSMNSKGCKVYFGRWLIEGGPLVVLLDVGASAWALERWKGELWDTCNIGVPWYDREANDAVLFGFLTTWFLGEFLAQSEEKPHVVAHFHEWLAGVGLCLCRARRLPVATIFTTHATLLGRYLCAGAVDFYNNLENFNVDKEAGERQIYHRYCMERAAAHCAHVFTTVSQITAIEAQHLLKRKPDIVTPNGLNVKKFSAMHEFQNLHAQSKARIQEFVRGHFYGHLDFNLDKTLYFFIAGRYEFSNKGADVFLEALARLNYLLRVNGSEQTVVAFFIMPARTNNFNVETLKGQAVRKQLWDTANTVKEKFGRKLYESLLVGSLPDMNKMLDKEDFTMMKRAIFATQRQSFPPVCTHNMLDDSSDPILTTIRRIGLFNSSADRVKVIFHPEFLSSTSPLLPVDYEEFVRGCHLGVFPSYYEPWGYTPAECTVMGIPSISTNLSGFGCFMEEHIADPSAYGIYILDRRFRSLDDSCSQLTSFLYSFCQQSRRQRIIQRNRTERLSDLLDWKYLGRYYMSARHMALSKAFPEHFTYEPNEADAAQGYRYPRPASVPPSPSLSRHSSPHQSEDEEDPRNGPLEEDGERYDEDEEAAKDRRNIRAPEWPRRASCTSSTSGSKRNSVDTATSSSLSTPSEPLSPTSSLGEERN
# modifications: heavily phosphorylated: phospho-T54, T372, S412, S486, S641, S645, S647, S652, S653, S657, S710, S727 (LC-MS), S8/S11 (immunoblot); about 6 mol phosphate per mol total protein (GYS1 + GN1)
# notes: human muscle glycogen synthase GYS1, NM 002103, UniProt P13807; no tag; the introduction speaks of a complete full-length complex; tryptic peptides up to residue 737 were found; the methods say only 'genes coding for human GYS1'; also called glycogen synthase-1; GYSb (native, phosphorylated form); source: Sf9, co-expressed with GST-tagged GN1 from a bicistronic pFastBac-Dual baculovirus; in …
# Target: T1, human glycogenin-1 (GN1), GST removed …
# Test: SEC; analytical: purified GYS1:GN1 (5 ug) on Superdex 200 3.2/300, 20 mM TES pH 7.4, 150 mM KCl, 1 mM DTT; apparent MW against protein standards
# Conditions: both partners purified
binder,measurement,value
B1,stoichiometry N,~1 GYS1 per GN1 (printed as 4:4)
